System: mutant form of α-Gal A expressed in HEK-293 cells
Test: HEK assay (GLP HEK / Migalastat Amenability Assay): α-Gal A activity in lysates of transiently transfected HEK-293 cells incubated with or without 10 μM migalastat
Type: cell-based, human
Settings: for Absolute increase (% WT): 10 μM migalastat versus baseline; for Relative increase: 10 μM migalastat α-Gal A activity relative to baseline; for 10 μM migalastat α-Gal A activity (% WT): 5 days; for 10 μM migalastat α-Gal A activity (% WT) / Baseline α-Gal A activity (% WT): percentage of baseline wild-type α-Gal A activity; for 10 μM migalastat α-Gal A activity (% WT) / Baseline α-Gal A activity (% WT) / Baseline α-Gal A activity / 10 μM migalastat α-Gal A activity: mean ± SEM; for Baseline α-Gal A activity (% WT): absence of migalastat; for Baseline α-Gal A activity / 10 μM migalastat α-Gal A activity: lysates of HEK-293 cells transfected with the mutant form; for Baseline α-Gal A activity: incubated 5 days in the absence of migalastat; for 10 μM migalastat α-Gal A activity: incubated 5 days with 10 μM migalastat
Protocol: Such mutations or variants are also referred to herein as “HEK assay amenable” mutations or variants.
The α-Gal A activity is expressed as the nmoles of free 4-MU released per milligram of protein per hour (nmol/mg/hr).
In Table 7, values for the mean±standard error of the mean (SEM) were calculated. nmol/mg/hr indicates “nmoles of free 4-MU released per mg of protein per hour”. WT indicates “wild-type”. NC indicates “not calculable”. N/A indicates “not applicable”.

Molecule | Absolute increase (% WT) | Relative increase | 10 μM migalastat α-Gal A activity (% WT) | Baseline α-Gal A activity (% WT) | Baseline α-Gal A activity | 10 μM migalastat α-Gal A activity
L106P (protein) MQLRNPELHLGCALALRFLALVSWDIPGARALDNGLARTPTMGWLHWERFMCNLDCQEEPDSCISEKLFMEMAELMVSEGWKDAGYEYLCIDDCWMAPQRDSEGRPQADPQRFPHGIRQLANYVHSKGLKLGIYADVGNKTCAGFPGSFGYYDIDAQTFADWGVDLLKFDGCYCDSLENLADGYKHMSLALNRTGRSIVYSCEWPLYMWPFQKPNYTEIRQYCNHWRNFADIDDSWKSIKSILDWTSFNQERIVDVAGPGGWNDPDMLVIGNFGLSWNQQVTQMALWAIMAAPLFMSNDLRHISPQAKALLQDKDVIAINQDPLGKQGYQLRQGDNFEVWERPLSGLAWAVAMINRQEIGGPRSYTIAVASLGKGVACNPACFITQLLPVKRKLGFYEWTSRLRSHINPTGTVLLQLENTMQMSLKDLL | 25.8 % WT | 1.8 | 56.5 ± 3.9 % WT | 30.7 ± 2.7 % WT | 8835 ± 878 nmol/mg/h | 16075 ± 1039 nmol/mg/h
A108V (protein) MQLRNPELHLGCALALRFLALVSWDIPGARALDNGLARTPTMGWLHWERFMCNLDCQEEPDSCISEKLFMEMAELMVSEGWKDAGYEYLCIDDCWMAPQRDSEGRLQVDPQRFPHGIRQLANYVHSKGLKLGIYADVGNKTCAGFPGSFGYYDIDAQTFADWGVDLLKFDGCYCDSLENLADGYKHMSLALNRTGRSIVYSCEWPLYMWPFQKPNYTEIRQYCNHWRNFADIDDSWKSIKSILDWTSFNQERIVDVAGPGGWNDPDMLVIGNFGLSWNQQVTQMALWAIMAAPLFMSNDLRHISPQAKALLQDKDVIAINQDPLGKQGYQLRQGDNFEVWERPLSGLAWAVAMINRQEIGGPRSYTIAVASLGKGVACNPACFITQLLPVKRKLGFYEWTSRLRSHINPTGTVLLQLENTMQMSLKDLL | 34.4 % WT | 3.5 | 47.7 ± 4.6 % WT | 13.3 ± 1.7 % WT | 4914 ± 799 nmol/mg/h | 17249 ± 2284 nmol/mg/h
D109E (protein) MQLRNPELHLGCALALRFLALVSWDIPGARALDNGLARTPTMGWLHWERFMCNLDCQEEPDSCISEKLFMEMAELMVSEGWKDAGYEYLCIDDCWMAPQRDSEGRLQAEPQRFPHGIRQLANYVHSKGLKLGIYADVGNKTCAGFPGSFGYYDIDAQTFADWGVDLLKFDGCYCDSLENLADGYKHMSLALNRTGRSIVYSCEWPLYMWPFQKPNYTEIRQYCNHWRNFADIDDSWKSIKSILDWTSFNQERIVDVAGPGGWNDPDMLVIGNFGLSWNQQVTQMALWAIMAAPLFMSNDLRHISPQAKALLQDKDVIAINQDPLGKQGYQLRQGDNFEVWERPLSGLAWAVAMINRQEIGGPRSYTIAVASLGKGVACNPACFITQLLPVKRKLGFYEWTSRLRSHINPTGTVLLQLENTMQMSLKDLL | 9.3 % WT | 1.2 | 50.6 ± 3.6 % WT | 41.3 ± 3.4 % WT | 13839 ± 1179 nmol/mg/h | 16926 ± 1156 nmol/mg/h
Q107H (protein) MQLRNPELHLGCALALRFLALVSWDIPGARALDNGLARTPTMGWLHWERFMCNLDCQEEPDSCISEKLFMEMAELMVSEGWKDAGYEYLCIDDCWMAPQRDSEGRLHADPQRFPHGIRQLANYVHSKGLKLGIYADVGNKTCAGFPGSFGYYDIDAQTFADWGVDLLKFDGCYCDSLENLADGYKHMSLALNRTGRSIVYSCEWPLYMWPFQKPNYTEIRQYCNHWRNFADIDDSWKSIKSILDWTSFNQERIVDVAGPGGWNDPDMLVIGNFGLSWNQQVTQMALWAIMAAPLFMSNDLRHISPQAKALLQDKDVIAINQDPLGKQGYQLRQGDNFEVWERPLSGLAWAVAMINRQEIGGPRSYTIAVASLGKGVACNPACFITQLLPVKRKLGFYEWTSRLRSHINPTGTVLLQLENTMQMSLKDLL | 9.1 % WT | 1.2 | 50.8 ± 2 % WT | 41.7 ± 1.5 % WT | 12307 ± 487 nmol/mg/h | 14822 ± 384 nmol/mg/h
Q107K (protein) MQLRNPELHLGCALALRFLALVSWDIPGARALDNGLARTPTMGWLHWERFMCNLDCQEEPDSCISEKLFMEMAELMVSEGWKDAGYEYLCIDDCWMAPQRDSEGRLKADPQRFPHGIRQLANYVHSKGLKLGIYADVGNKTCAGFPGSFGYYDIDAQTFADWGVDLLKFDGCYCDSLENLADGYKHMSLALNRTGRSIVYSCEWPLYMWPFQKPNYTEIRQYCNHWRNFADIDDSWKSIKSILDWTSFNQERIVDVAGPGGWNDPDMLVIGNFGLSWNQQVTQMALWAIMAAPLFMSNDLRHISPQAKALLQDKDVIAINQDPLGKQGYQLRQGDNFEVWERPLSGLAWAVAMINRQEIGGPRSYTIAVASLGKGVACNPACFITQLLPVKRKLGFYEWTSRLRSHINPTGTVLLQLENTMQMSLKDLL | 16.4 % WT | 1.4 | 54.6 ± 4.8 % WT | 38.2 ± 3.9 % WT | 14579 ± 2689 nmol/mg/h | 20402 ± 3399 nmol/mg/h
A108E (protein) MQLRNPELHLGCALALRFLALVSWDIPGARALDNGLARTPTMGWLHWERFMCNLDCQEEPDSCISEKLFMEMAELMVSEGWKDAGYEYLCIDDCWMAPQRDSEGRLQEDPQRFPHGIRQLANYVHSKGLKLGIYADVGNKTCAGFPGSFGYYDIDAQTFADWGVDLLKFDGCYCDSLENLADGYKHMSLALNRTGRSIVYSCEWPLYMWPFQKPNYTEIRQYCNHWRNFADIDDSWKSIKSILDWTSFNQERIVDVAGPGGWNDPDMLVIGNFGLSWNQQVTQMALWAIMAAPLFMSNDLRHISPQAKALLQDKDVIAINQDPLGKQGYQLRQGDNFEVWERPLSGLAWAVAMINRQEIGGPRSYTIAVASLGKGVACNPACFITQLLPVKRKLGFYEWTSRLRSHINPTGTVLLQLENTMQMSLKDLL | 14.2 % WT | 1.4 | 52.6 ± 4.6 % WT | 38.4 ± 2.6 % WT | 11629 ± 835 nmol/mg/h | 15648 ± 1305 nmol/mg/h
D109A (protein) MQLRNPELHLGCALALRFLALVSWDIPGARALDNGLARTPTMGWLHWERFMCNLDCQEEPDSCISEKLFMEMAELMVSEGWKDAGYEYLCIDDCWMAPQRDSEGRLQAAPQRFPHGIRQLANYVHSKGLKLGIYADVGNKTCAGFPGSFGYYDIDAQTFADWGVDLLKFDGCYCDSLENLADGYKHMSLALNRTGRSIVYSCEWPLYMWPFQKPNYTEIRQYCNHWRNFADIDDSWKSIKSILDWTSFNQERIVDVAGPGGWNDPDMLVIGNFGLSWNQQVTQMALWAIMAAPLFMSNDLRHISPQAKALLQDKDVIAINQDPLGKQGYQLRQGDNFEVWERPLSGLAWAVAMINRQEIGGPRSYTIAVASLGKGVACNPACFITQLLPVKRKLGFYEWTSRLRSHINPTGTVLLQLENTMQMSLKDLL | 20.4 % WT | 2.2 | 38 ± 3.7 % WT | 17.5 ± 2.2 % WT | 6345 ± 1034 nmol/mg/h | 13742 ± 1780 nmol/mg/h
L106V (protein) MQLRNPELHLGCALALRFLALVSWDIPGARALDNGLARTPTMGWLHWERFMCNLDCQEEPDSCISEKLFMEMAELMVSEGWKDAGYEYLCIDDCWMAPQRDSEGRVQADPQRFPHGIRQLANYVHSKGLKLGIYADVGNKTCAGFPGSFGYYDIDAQTFADWGVDLLKFDGCYCDSLENLADGYKHMSLALNRTGRSIVYSCEWPLYMWPFQKPNYTEIRQYCNHWRNFADIDDSWKSIKSILDWTSFNQERIVDVAGPGGWNDPDMLVIGNFGLSWNQQVTQMALWAIMAAPLFMSNDLRHISPQAKALLQDKDVIAINQDPLGKQGYQLRQGDNFEVWERPLSGLAWAVAMINRQEIGGPRSYTIAVASLGKGVACNPACFITQLLPVKRKLGFYEWTSRLRSHINPTGTVLLQLENTMQMSLKDLL | 19.8 % WT | 1.4 | 73.4 ± 5.9 % WT | 53.6 ± 4.3 % WT | 15393 ± 1288 nmol/mg/h | 20991 ± 1611 nmol/mg/h
Q107E (protein) MQLRNPELHLGCALALRFLALVSWDIPGARALDNGLARTPTMGWLHWERFMCNLDCQEEPDSCISEKLFMEMAELMVSEGWKDAGYEYLCIDDCWMAPQRDSEGRLEADPQRFPHGIRQLANYVHSKGLKLGIYADVGNKTCAGFPGSFGYYDIDAQTFADWGVDLLKFDGCYCDSLENLADGYKHMSLALNRTGRSIVYSCEWPLYMWPFQKPNYTEIRQYCNHWRNFADIDDSWKSIKSILDWTSFNQERIVDVAGPGGWNDPDMLVIGNFGLSWNQQVTQMALWAIMAAPLFMSNDLRHISPQAKALLQDKDVIAINQDPLGKQGYQLRQGDNFEVWERPLSGLAWAVAMINRQEIGGPRSYTIAVASLGKGVACNPACFITQLLPVKRKLGFYEWTSRLRSHINPTGTVLLQLENTMQMSLKDLL | 10.4 % WT | 1.2 | 56.2 ± 3.3 % WT | 45.7 ± 3.1 % WT | 13148 ± 985 nmol/mg/h | 16149 ± 1059 nmol/mg/h

From patent US11833164B2, “Methods of treating Fabry disease in patients having a mutation in the GLA gene” (Amicus Therapeutics, Inc., priority 2019, dated 2023)
